# T1: human ROBO3 (pCI-hROBO3-transfected HEK293 cells) (human, UniProt Q96MS0 21-1386)
# T1 sequence: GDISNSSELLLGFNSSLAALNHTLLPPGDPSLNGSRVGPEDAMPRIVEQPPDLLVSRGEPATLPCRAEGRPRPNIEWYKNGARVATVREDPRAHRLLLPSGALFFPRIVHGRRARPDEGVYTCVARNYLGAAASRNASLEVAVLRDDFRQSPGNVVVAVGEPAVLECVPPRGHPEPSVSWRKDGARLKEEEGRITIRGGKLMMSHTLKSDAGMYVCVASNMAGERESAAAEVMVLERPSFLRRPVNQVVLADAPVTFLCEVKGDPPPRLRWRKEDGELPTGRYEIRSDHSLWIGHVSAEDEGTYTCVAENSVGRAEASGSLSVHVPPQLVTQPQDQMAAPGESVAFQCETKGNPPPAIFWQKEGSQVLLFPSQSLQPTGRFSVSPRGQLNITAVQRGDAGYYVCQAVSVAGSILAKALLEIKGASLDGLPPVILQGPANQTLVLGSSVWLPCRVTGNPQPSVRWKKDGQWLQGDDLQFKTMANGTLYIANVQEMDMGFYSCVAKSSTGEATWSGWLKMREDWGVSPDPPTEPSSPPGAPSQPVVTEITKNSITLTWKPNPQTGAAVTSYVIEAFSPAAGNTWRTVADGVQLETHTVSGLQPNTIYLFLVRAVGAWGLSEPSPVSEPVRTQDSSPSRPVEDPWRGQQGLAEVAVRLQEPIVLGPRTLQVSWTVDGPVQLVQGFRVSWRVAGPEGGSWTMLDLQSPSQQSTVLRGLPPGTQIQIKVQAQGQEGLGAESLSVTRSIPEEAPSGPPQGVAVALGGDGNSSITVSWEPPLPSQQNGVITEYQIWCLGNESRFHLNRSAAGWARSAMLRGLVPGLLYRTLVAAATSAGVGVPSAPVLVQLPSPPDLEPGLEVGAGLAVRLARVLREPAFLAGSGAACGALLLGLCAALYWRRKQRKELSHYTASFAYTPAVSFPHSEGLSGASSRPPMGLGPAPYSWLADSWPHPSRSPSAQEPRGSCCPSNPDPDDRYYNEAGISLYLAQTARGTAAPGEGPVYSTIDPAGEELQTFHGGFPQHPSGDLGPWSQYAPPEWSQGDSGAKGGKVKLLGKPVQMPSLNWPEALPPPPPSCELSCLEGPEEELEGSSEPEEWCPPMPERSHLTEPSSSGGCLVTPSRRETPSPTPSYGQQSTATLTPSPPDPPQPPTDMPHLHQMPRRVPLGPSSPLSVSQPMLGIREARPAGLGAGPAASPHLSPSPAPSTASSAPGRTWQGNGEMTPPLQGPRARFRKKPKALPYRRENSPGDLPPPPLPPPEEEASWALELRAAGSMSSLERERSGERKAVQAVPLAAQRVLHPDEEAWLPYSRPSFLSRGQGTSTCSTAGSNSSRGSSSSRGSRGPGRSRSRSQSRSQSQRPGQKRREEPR
# B1: anti-ROBO4 mouse monoclonal antibody MAb1 (antibody, mouse IgG1, V domains shown)
# VH: EVQLVESGGGLVKPGGSLKLSCAASGFTFSTYAMSWVRQTPEKRLEWVATISNGGTYTYYPDSVKGRFTISRDNAENTLYLQMSSLRSEDTAMYFCARLIYYDYLDYWGHGTTLTVSS
# VL: DAVMTQTPLSLPVSLGDQASISCRSSQSLENSNGNTYLNWYFQKPGQSPQLLIYRVSNRFSGVLDRFSGSGSGTDFTLKISRVEAEDFGVYFCLQVTHVPWTFGGGTKLEIKR
# notes: Mouse IgG1 (gamma1), kappa light chain, purified from hybridoma supernatant; also called parent antibody MAb1
# Biological target: T1, human ROBO3 (pCI-hROBO3-transfected …)
# Assay: flow cytometry, HEK293 cells transfected with pCI-hROBO3, anti-mouse IgG FITC; control histogram IgG
# Experimental: HEK293 cells were inoculated at a concentration of 1.2×10⁶ cells/dish or 1.5×10⁶ cells/dish to a 60-mm dish (manufactured by Corning Inc.) and cultured overnight in a DMEM medium containing 10% FBS at 37° C. under 5% CO₂ conditions. On the next day, the HEK293 cells were transfected with pCI-hROBO4, pCI-FLAG-hROBO1, pCI-hROBO2, or pCI-hROBO3 using FuGENE6 Transfection Reagent and further cultured overnight at 37° C. under 5% CO₂ conditions. On the next day, the expression vector-transfected cells were treated with TrypLE Express (manufactured by Life Technologies Corp.), washed with PBS containing 5% FBS, and then suspended in PBS containing 5% FBS. The obtained cell suspension was used in flow cytometry analysis.
# Each cell suspension prepared in 4)-4-1 was centrifuged, and the supernatant was removed. […] Data was analyzed using Flowjo. The histogram of FITC fluorescence intensity was prepared. The antibody was determined to bind in a specific manner when the histogram of MAb1 was shifted to a stronger fluorescence intensity region compared with the histogram of the negative control Mouse IgG1 or Mouse IgG2a. […]
binder,measurement,value
B1,binding result,no binding (tested: 10 µg/mL)
